Read-outs that look alike come from different tables or passages of the source.
T1: mouse SIRPβ1 on CHO cells (mouse)
T1 construct: Whole entry
T1 chain: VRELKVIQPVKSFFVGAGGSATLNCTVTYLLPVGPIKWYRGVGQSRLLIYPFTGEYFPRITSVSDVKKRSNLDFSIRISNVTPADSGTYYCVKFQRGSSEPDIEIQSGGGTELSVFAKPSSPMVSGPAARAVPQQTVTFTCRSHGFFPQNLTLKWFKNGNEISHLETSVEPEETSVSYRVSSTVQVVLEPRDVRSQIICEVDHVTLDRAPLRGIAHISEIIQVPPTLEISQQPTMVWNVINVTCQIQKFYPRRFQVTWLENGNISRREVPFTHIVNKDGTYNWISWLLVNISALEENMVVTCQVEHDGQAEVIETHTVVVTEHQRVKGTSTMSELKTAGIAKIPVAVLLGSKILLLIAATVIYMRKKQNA


Tests used:
[1] = target: T2, human SIRPβ1 domain 1 (D1) Fc fusion (human, UniProt O00241 30-148); test: Octet, Fab monovalent
T2 construct: Made in HEK293/T cells with a heterologous signal peptide; also called Human SIRPβ1 D1-Fc; Human SIRPβ1-Fc; not shown: C-terminal human IgG1 Fc

[2] = target: T3, human SIRPβ1 isoform 1 on cells (human, UniProt O00241 30-398); test: cell binding titration; target not given
T3 construct: On CHO cells (low level), on BWZ/BW5147.G.1.4 cells (reporter cells co-express human DAP12) or on primary human myeloid cells; also called huSIRPβ1; BWZ-huSIRPβ1

[3] = target: T1, mouse SIRPβ1 on CHO cells; test: flow cytometry;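 for FOB: antibody binding to cells detected with a PE-labelled secondary antibody, given as mean fluorescence intensity relative to background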
Procedure: (§1) Cells were then washed twice and incubated in 100 ul FACS buffer containing 0.5 μg/ml PE-conjugated secondary antibody for 30 minutes on ice. Cells were washed twice in cold FACS buffer and acquired on a BD FACS Canto. Data analysis and calculation of mean fluorescence intensity (MFI) values or 00 positive cells was performed with FlowJo (TreeStar) software version 10.0.7.
(§2) Given the high sequence similarity between receptors of the SIRPβ family, anti-SIRPβ1 antibodies were also screened for cross-reactivity to human SIRPα.

[4] = target: T3, human SIRPβ1 isoform 1 on cells; test: flow cytometry;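 note: antibody binding to cells detected with a PE-labelled secondary antibody, given as mean fluorescence intensity relative to background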
Procedure: as §1, §2

human SIRPα on cells [5] = target: T4, human SIRPα on cells (human, UniProt P78324 31-504); test: flow cytometry;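 for FOB: antibody binding to cells detected with a PE-labelled secondary antibody, given as mean fluorescence intensity relative to background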
T4 construct: Whole entry
Procedure: as §1, §2

[6] = target: T5, human SIRPα domain 1 (D1) Fc fusion (human, UniProt P78324 32-149); test: Octet, IgG avid
T5 construct: also called human SIRPα D1-Fc; Human SIRPα Fc; not shown: C-terminal human IgG1 Fc

[7] = target: T1, mouse SIRPβ1 on CHO cells; test: flow cytometry;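 for FOB: antibody binding to cells detected with a PE-labelled secondary antibody, given as mean fluorescence intensity relative to background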
human SIRPα on cells [8] = target: T4, human SIRPα on cells; test: flow cytometry; remark: listed apart in the source
[9] = target: T2, human SIRPβ1 domain 1 (D1) Fc fusion; test: Octet, Fab monovalent; remark: listed apart in the source
Procedure: Briefly, Octet® affinity measurements were performed by loading IgGs on-line onto AHQ sensors. Sensors were equilibrated off-line in assay buffer for 30 min and then monitored on-line for 60 seconds for baseline establishment. For avid binding measurement, sensors with loaded IgGs were exposed to 100 nM antigen (human SIRPα or SIRPβ1 Fc fusion) for 3 min, and then transferred to assay buffer for 3 min for off-rate measurement. Additional avid binding was determined by loading biotinylated SIRPβ1 monomer on SA sensors and exposuring to 100 nM IgG in solution. Monovalent binding measurements were obtained by loading human SIRPβ1 Fc fusion antigens to AHQ sensor, followed by exposure to 100 nM anti-SIRPβ1 antibody Fab. Additional monovalent measurements were made by loading biotinylated human SIRPβ1 monomer to SA sensor followed by exposure to 100 nM Fab in solution. Kinetics data were fit using a 1:1 binding model in the data analysis software provided by ForteBio.

T3 sequence (O00241 30-398): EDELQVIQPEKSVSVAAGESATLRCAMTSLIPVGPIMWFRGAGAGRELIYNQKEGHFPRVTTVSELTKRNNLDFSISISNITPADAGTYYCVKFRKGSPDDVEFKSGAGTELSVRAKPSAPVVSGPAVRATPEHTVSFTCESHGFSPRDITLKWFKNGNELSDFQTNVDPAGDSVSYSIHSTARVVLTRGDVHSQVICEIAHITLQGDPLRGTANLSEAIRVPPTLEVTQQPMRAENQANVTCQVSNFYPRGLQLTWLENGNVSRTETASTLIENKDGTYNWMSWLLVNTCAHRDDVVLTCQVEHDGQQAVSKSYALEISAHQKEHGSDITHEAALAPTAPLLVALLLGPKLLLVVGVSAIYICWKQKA
T2 sequence (O00241 30-148 limits assumed): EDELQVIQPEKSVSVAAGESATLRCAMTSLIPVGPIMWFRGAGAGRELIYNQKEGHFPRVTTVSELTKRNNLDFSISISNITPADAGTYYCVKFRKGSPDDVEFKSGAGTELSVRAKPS

Kd [1] [nM] | EC50 [2] [nM] | FOB [3] [fold over background] | FOB [4] [fold over background] | FOB (human SIRPα on cells [5]) [fold over background] | binding result [6] | binding result [7] | binding result (human SIRPα on cells [8]) | Kd [9] [nM] | Kd [6] [nM] | Binder
156 | – | – | – | – | – | – | – | – | – | SB-49 Fab (Fab, V domains shown, Fab by papain digestion) VH: QLQLQESGPGLVKPSETLSLTCTVSGGSISSSDYYWGWIRQPPGKGLEWIGSIYYSGSTYYNPSLKSRVTISVDTSKNQFSLKLSSVTAADTAVYYCARGPTGYKDKWRYYYGMDVWGQGTTVTVSS VL: DIQMTQSPSSLSASVGDRVTITCQASQDITNYLNWYQQKPGKAPKLLIYDASNLETGVPSRFSGSGSGTDFTFTISSLQPEDIATYYCQQYFHPPLTFGGGTKVEIK
– | 0.32 | 2 | 4 | 1 | no binding (tested: 100 nM) | no binding (tested: 1 ug/ml) | no binding (tested: 1 ug/ml) | – | – | SB-40-18 (antibody, V domains shown, IgG) VH: QVQLVQSGAEVKKPGASVKVSCKASGYTFTSYYMAWVRQAPGQRLEWMGWINPAVGATIYSQKFQGRVTITRDTSASTAYMELSSLRSEDTAVYYCARDTGEYSYSPHGMDVWGQGTTVTVSS VL: EIVLTQSPATLSLSPGERATLSCRASQSVSSYLAWYQQKPGQAPRLLIYDSSNRATGIPARFSGSGSGTDFTLTISSLEPEDFAVYYCQQRDEHPPWTFGGGTKVEIK
– | 0.304 | 1 | 7 | – | – | no binding (tested: 1 ug/ml) | – | – | 18.3 | SB-8-14 (antibody, V domains shown, IgG) VH: QVQLQESGPGLVKPSETLSLTCAVSGYSISPHYYWGWIRQPPGKGLEWIGSIYHSGHTYYNPSLKSRVTISVDTSKNQFSLKLSSVTAADTAVYYCARGGAMTPAGMDVWGQGTTVTVSS VL: EIVMTQSPGTLSLSPGERATLSCRASQSVSSSYLAWYQQKPGQAPRLLIYGASNRATGIPDRFSGSGSGTDFTLTISRLEPEDFAVYYCQQVYSSPYTFGGGTKVEIK
131 | – | – | – | – | – | – | – | – | – | SB-6 Fab (Fab, V domains shown, Fab by papain digestion) VH: not shown VL: EIVLTQSPGTLSLSPGERATLSCRASQSVSSSYLAWYQQKPGQAPRLLIYGASSRATGIPDRFSGSGSGTDFTLTISRLEPEDFAVYYCQQSGHLPITFGGGTKVEIK
– | 0.147 | 2 | 9 | 1 | no binding (tested: 100 nM) | no binding (tested: 1 ug/ml) | no binding (tested: 1 ug/ml) | – | – | SB-8-16 (antibody, V domains shown, IgG) VH: QVQLQESGPGLVKPSETLSLTCAVSGYSISAHYYWGWIRQPPGKGLEWIGSIFHSGHTYYNPSLKSRVTISVDTSKNQFSLKLSSVTAADTAVYYCARAGAMTPAGMDVWGQGTTVTVSS VL: EIVMTQSPGTLSLSPGERATLSCRASQSVSSSYLAWYQQKPGQAPRLLIYGASNRATGIPDRFSGSGSGTDFTLTISRLEPEDFAVYYCQQVYSSPYTFGGGTKVEIK

Continued, binder first:

Binder | Kd [1] [nM] | EC50 [2] [nM] | FOB [3] [fold over background] | FOB [4] [fold over background] | FOB (human SIRPα on cells [5]) [fold over background] | binding result [6] | binding result [7] | binding result (human SIRPα on cells [8]) | Kd [9] [nM] | Kd [6] [nM]
SB-40-19 (antibody, V domains shown, IgG) VH: QVQLVQSGAEVKKPGASVKVSCKASGYTFTSYYMVWVRQAPGQGLEWMGIINPSSGATNYAQKFQGRVTMTTDTSTSTAYMELRSLRSDDTAVYYCARDTGEYSYSPHGMDVWGQGTTVTVSS VL: EIVLTQSPATLSLSPGERATLSCRASQSVSSYLAWYQQKPGQAPRLLIYDSSNRATGIPARFSGSGSGTDFTLTISSLEPEDFAVYYCQQRDEHPPWTFGGGTKVEIK | – | 0.713 | 2 | 3 | 1 | no binding (tested: 100 nM) | no binding (tested: 1 ug/ml) | no binding (tested: 1 ug/ml) | – | –
SB-1-4 (antibody, V domains shown, IgG) VH: QVQLVESGGGVVQPGGSLRLSCAASGFTFSAYGMNWVRQAPGKGLEWVSAIRASGGATYYADSVKGRFTISRDNSKNTLYLQMNSLRAEDTAVYYCAKDFTEVVGWLGMDVWGQGTTVTVSS VL: EIVMTQSPGTLSLSPGERATLSCRASQSVSSSYLAWYQQKPGQAPRLLIYGASSRATGIPDRFSGSGSGTDFTLTISRLEPEDFAVYYCQLLGSSPRTFGGGTKVEIK | – | 0.073 | 1 | 3 | 1 | no binding (tested: 100 nM) | no binding (tested: 1 ug/ml) | no binding (tested: 1 ug/ml) | – | –
SB-2-7 Fab (Fab, V domains shown, Fab by papain digestion) VH: EVQLLESGGGLVQPGGSLRLSCAASGFTFARYGMHWVRQAPGKGLEWVSAISGLAGPTYADSVKGRFTISRDNSKNTLYLQMNSLRAEDTAVYYCARDQTAAAAIWGMDVWGQGTTVTVSS VL: EVVLTQSPGTLSLSPGERATLSCRASQSVSSSYLAWYQQKPGQAPRLLIYGASSRATGIPDRFSGSGSGTDFTLTISRLEPEDFAVYYCQQSSSHPFTFGGGTKVEIK | – | – | – | – | – | – | – | – | 6.21 | –
SB-1-5 (antibody, V domains shown, IgG) VH: QVQLVESGGGVVQPGRSLRLSCAASGFTFSAYGMNWVRQAPGKGLEWVSAISASGRSTFYADSVKGRFTISRDNSKNTLYLQMNSLRAEDTAVYYCAKDFTEVVGWLGMDVWGQGTTVTVSS VL: EIVMTQSPGTLSLSPGERATLSCRASQSVSSSYLAWYQQKPGQAPRLLIYGASSRATGIPDRFSGSGSGTDFTLTISRLEPEDFAVYYCQLLGSSPRTFGGGTKVEIK | – | 0.038 | 2 | 3 | 1 | no binding (tested: 100 nM) | no binding (tested: 1 ug/ml) | no binding (tested: 1 ug/ml) | – | –
SB-2-10 (antibody, V domains shown, IgG) VH: EVQLLESGGGLVQPGGSLRLSCAASGFTFGSYGMHWVRQAPGKGLEWVSAISGLAGQTYADSVKGRFTISRDNSKNTLYLQMNSLRAEDTAVYYCARDQTAAAAIWGMDVWGQGTTVTVSS VL: EIVLTQSPGTLSLSPGERATLSCRASQSVSSSYLAWYQQKPGQAPRLLIYGASSRATGIPDRFSGSGSGTDFTLTISRLEPEDFAVYYCQQSSSHPFTFGGGTKVEIK | – | 0.234 | 2 | 4 | 1 | no binding (tested: 100 nM) | no binding (tested: 1 ug/ml) | no binding (tested: 1 ug/ml) | – | –
SB-2-8 Fab (Fab, V domains shown, Fab by papain digestion) VH: QVQLVESGGGVVQPGRSLRLSCAASGFTFLDYGMHWVRQAPGKGLEWVSAISAFAGSTYADSVKGRFTISRDNSKNTLYLQMNSLRAEDTAVYYCARDQTAAAAIWGMDVWGQGTTVTVSS VL: EVVLTQSPGTLSLSPGERATLSCRASQSVSSSYLAWYQQKPGQAPRLLIYGASSRATGIPDRFSGSGSGTDFTLTISRLEPEDFAVYYCQQSSSHPFTFGGGTKVEIK | – | – | – | – | – | – | – | – | 5.02 | –
SB-2-9 (antibody, V domains shown, IgG) VH: QVQLVESGGGVVQPGRSLRLSCAASGFTFKTYGMHWVRQAPGKGLEWVAHIWYEGSNKVYADSVKGRFTISRDNSKNTLYLQMNSLRAEDTAVYYCARDQTAAAAIWGMDVWGQGTTVTVSS VL: EVVLTQSPGTLSLSPGERATLSCRASQSVSSSYLAWYQQKPGQAPRLLIYGASSRATGIPDRFSGSGSGTDFTLTISRLEPEDFAVYYCQQSSSHPFTFGGGTKVEIK | – | 0.469 | 2 | 4 | 1 | no binding (tested: 100 nM) | no binding (tested: 1 ug/ml) | no binding (tested: 1 ug/ml) | – | –
SB-2-11 Fab (Fab, V domains shown, Fab by papain digestion) VH: QVQLVESGGGLVQPGGSLRLSCAASGFTFARYGMHWVRQAPGKGLEWVSAISGLAGPTYADSVKGRFTISRDNSKNTLYLQMNSLRAEDTAVYYCARDQTAAWGIWGMDVWGQGTTVTVSS VL: EIVLTQSPGTLSLSPGERATLSCRASQSVSSSYLAWYQQKPGQAPRLLIYGASSRATGIPDRFSGSGSGTDFTLTISRLEPEDFAVYYCQQSSSHPFTFGGGTKVEIK | – | – | – | – | – | – | – | – | 4.4 | –
SB-2-10 Fab (Fab, V domains shown, Fab by papain digestion) VH: EVQLLESGGGLVQPGGSLRLSCAASGFTFGSYGMHWVRQAPGKGLEWVSAISGLAGQTYADSVKGRFTISRDNSKNTLYLQMNSLRAEDTAVYYCARDQTAAAAIWGMDVWGQGTTVTVSS VL: EIVLTQSPGTLSLSPGERATLSCRASQSVSSSYLAWYQQKPGQAPRLLIYGASSRATGIPDRFSGSGSGTDFTLTISRLEPEDFAVYYCQQSSSHPFTFGGGTKVEIK | – | – | – | – | – | – | – | – | 12.3 | –
SB-2-11 (antibody, V domains shown, IgG) VH: QVQLVESGGGLVQPGGSLRLSCAASGFTFARYGMHWVRQAPGKGLEWVSAISGLAGPTYADSVKGRFTISRDNSKNTLYLQMNSLRAEDTAVYYCARDQTAAWGIWGMDVWGQGTTVTVSS VL: EIVLTQSPGTLSLSPGERATLSCRASQSVSSSYLAWYQQKPGQAPRLLIYGASSRATGIPDRFSGSGSGTDFTLTISRLEPEDFAVYYCQQSSSHPFTFGGGTKVEIK | – | 0.22 | 2 | 6 | 0 | no binding (tested: 100 nM) | no binding (tested: 1 ug/ml) | no binding (tested: 1 ug/ml) | – | –
